Here are results for 39 sequences from the supplement of paper PMC7877785.

This data set in a line: self-splicing fitness, log relative to wild type (ln ratio); higher = more splicing; Tetrahymena group I intron in knt gene, E. coli kanamycin selection, DiMSum; sequences stand for … in CUCUCU…GGAGGGAAAAGUUAUCAGGCAUGCACCUGGUAGCUAGUCUUUAAACCAAUAGAUUGCAUCGGUUUAAAAGGCAAGACCGUCAAAUUGCGGGAAAGGGGUCAACAGCCGUUCAGUACCAAGUCUCAGGGGAAACUUUGAGAUGGCCUUGCAAAGGGUAUGGUAAUAAGCUGACGGACAUGGUCCUAACCACGCAGCCAAGUCCUAAGUCAACAGAUCUUCUGUUGAUAUGGAUGCAGUUCACAGACUAAAUGUCGGUCGGGGAAGAUGUAUUCUUCUCAUAAGAUAUAGUCGGACCUCUCCUUAAUGGGAGCUAGCGGAUGAAGUGAUGCAACACUGGAGCCGCUGGGAACUAAUUUGUAUGCGAAAGUAUAUUGAUUAGUUUUGGAGUACUCGUGGUCG
The method, boiled down:
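The eight P1ex-region nucleotides of an intron in the knt kanamycin-resistance gene on pET-22b(+) were all randomised and the library put into E. coli BL21(DE3). Six replicate transformations were grown overnight at 37°C or 30°C on LB agar with or without 25 μg/mL kanamycin, together with 100 μg/mL carbenicillin, 50 μM IPTG and 0.2% rhamnose. Colonies were pooled and amplicon-sequenced on an Illumina HiSeq 2500. Fitness from DiMSum is the error-weighted combination of wild-type-normalised replicate fold changes, kanamycin over none.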

± gives the uncertainty stated by the source.

As for GUUCAGCAAUAUUACGUGAC, the “self-splicing fitness (ln)” value by setting is: (30 °C) -1.85 ± 0.11; (37 °C) -2.22 ± 0.12.

With CGUUAGCAAUAUUACGAUGG, the “self-splicing fitness (ln)” value runs as follows: (30 °C) -0.465 ± 0.094; (37 °C) -0.125 ± 0.13.

With GAGAAGCAAUAUUACGAGAG, the “self-splicing fitness (ln)” value (30 °C) is -2.86 ± 0.23 and the “self-splicing fitness (ln)” value (37 °C) was -1.91 ± 0.22.

For the sequence CGAAAGCAAUAUUACGAUAC, the “self-splicing fitness (ln)” value runs as follows: (30 °C) -1.99 ± 0.18; (37 °C) -2.11 ± 0.38.

Turning to GAGAAGCAAUAUUACGACAC, the “self-splicing fitness (ln)” value was -0.317 ± 0.15 (30 °C) and 0.578 ± 0.18 (37 °C).

AAACAGCAAUAUUACGUACC: the “self-splicing fitness (ln)” value (30 °C) is -1.52 ± 0.11 and the “self-splicing fitness (ln)” value (37 °C) is -0.543 ± 0.12.

Take UCAAAGCAAUAUUACGUUGA: the “self-splicing fitness (ln)” value (30 °C) is -3.43 ± 0.14 and the “self-splicing fitness (ln)” value (37 °C) was -2.66 ± 0.18.

For CUCAAGCAAUAUUACGCUUC, the “self-splicing fitness (ln)” value runs as follows: (30 °C) -2.35 ± 0.26; (37 °C) -2.7 ± 0.26.

Consider ACGUAGCAAUAUUACGCCAU, for which the “self-splicing fitness (ln)” value is, setting by setting: (30 °C) -3.02 ± 0.19; (37 °C) -2.55 ± 0.24.

Consider GCAAAGCAAUAUUACGACUC, for which the “self-splicing fitness (ln)” value (30 °C) was -0.773 ± 0.13 and the “self-splicing fitness (ln)” value (37 °C) was determined as 0.0939 ± 0.11.

Take CUGAAGCAAUAUUACGAGAU: the “self-splicing fitness (ln)” value was -2.63 ± 0.15 (30 °C) and -1.57 ± 0.15 (37 °C).

For the sequence GUUGAGCAAUAUUACGCUGU, the “self-splicing fitness (ln)” value (30 °C) is -4.02 ± 0.22 and the “self-splicing fitness (ln)” value (37 °C) is -2.15 ± 0.19.

As for CAAGAGCAAUAUUACGAUGA, the “self-splicing fitness (ln)” value (30 °C) is -3.62 ± 0.33 and the “self-splicing fitness (ln)” value (37 °C) was -0.971 ± 0.17.

Take GAGUAGCAAUAUUACGUGGA: the “self-splicing fitness (ln)” value reads like this: (30 °C) -3.37 ± 0.28; (37 °C) -2.52 ± 0.17.

As for UGCGAGCAAUAUUACGGUGC, the “self-splicing fitness (ln)” value (37 °C) is -0.943 ± 0.2.

Take CUGGAGCAAUAUUACGAACA: the “self-splicing fitness (ln)” value by setting is: (30 °C) -2.85 ± 0.42; (37 °C) -1.64 ± 0.48.

Consider UAUCAGCAAUAUUACGGUUU, for which the “self-splicing fitness (ln)” value was -0.764 ± 0.062 (30 °C) and -0.507 ± 0.07 (37 °C).

In the case of AAGGAGCAAUAUUACGGCAA, under “30 °C”, the “self-splicing fitness (ln)” value is -2.54 ± 0.39.

For the sequence AGGGAGCAAUAUUACGGAGG, for the setting “37 °C”, the “self-splicing fitness (ln)” value is -1.74 ± 0.43.

ACGCAGCAAUAUUACGGCUC: the “self-splicing fitness (ln)” value reads like this: (30 °C) -0.489 ± 0.055; (37 °C) -0.0273 ± 0.082.

As for AGACAGCAAUAUUACGCACA, the “self-splicing fitness (ln)” value is -0.582 ± 0.079 (30 °C) and -0.0964 ± 0.099 (37 °C).

Consider GUAAAGCAAUAUUACGUACG, for which the “self-splicing fitness (ln)” value (30 °C) is -0.843 ± 0.069 and the “self-splicing fitness (ln)” value (37 °C) was -0.015 ± 0.1.

For the sequence UGCUAGCAAUAUUACGCGGC, the “self-splicing fitness (ln)” value (30 °C) was -3.02 ± 0.38.

Regarding AAUAAGCAAUAUUACGAGAA, the “self-splicing fitness (ln)” value reads like this: (30 °C) -3.24 ± 0.38; (37 °C) -1.55 ± 0.27.

Consider ACCCAGCAAUAUUACGUCCC, for which the “self-splicing fitness (ln)” value is -1.18 ± 0.16 (30 °C) and -0.981 ± 0.17 (37 °C).

For GUACAGCAAUAUUACGGUCU, the “self-splicing fitness (ln)” value (30 °C) is -0.535 ± 0.084 and the “self-splicing fitness (ln)” value (37 °C) was -0.00413 ± 0.11.

As to UCACAGCAAUAUUACGACUG, the “self-splicing fitness (ln)” value (30 °C) is -2.18 ± 0.098 and the “self-splicing fitness (ln)” value (37 °C) is -0.964 ± 0.12.

In the case of ACGCAGCAAUAUUACGUCCA, the “self-splicing fitness (ln)” value runs as follows: (30 °C) -1.28 ± 0.11; (37 °C) -1.13 ± 0.1.

Consider ACAUAGCAAUAUUACGCAAU, for which the “self-splicing fitness (ln)” value reads like this: (30 °C) -3.57 ± 0.21; (37 °C) -2.67 ± 0.24.

Consider GACGAGCAAUAUUACGCCAA, for which the “self-splicing fitness (ln)” value is, setting by setting: (30 °C) -3.23 ± 0.28; (37 °C) -0.956 ± 0.3.

Take ACAAAGCAAUAUUACGGCAC: the “self-splicing fitness (ln)” value was -1.61 ± 0.079 (30 °C) and -0.954 ± 0.12 (37 °C).

On to AAGGAGCAAUAUUACGACAU, for which the “self-splicing fitness (ln)” value by setting is: (30 °C) -2.282 ± 0.02; (37 °C) -1.6 ± 0.037.

In the case of UAUUAGCAAUAUUACGUUCU, the “self-splicing fitness (ln)” value runs as follows: (30 °C) -2.64 ± 0.24; (37 °C) -1.19 ± 0.17.

Take UUCUAGCAAUAUUACGACAA: the “self-splicing fitness (ln)” value was -0.37 ± 0.12 (30 °C) and -0.0185 ± 0.17 (37 °C).

Consider CGGCAGCAAUAUUACGCGAG, for which the “self-splicing fitness (ln)” value is -2.86 ± 0.14 (30 °C) and -2.37 ± 0.14 (37 °C).

In the case of AGUCAGCAAUAUUACGCCGU, the “self-splicing fitness (ln)” value was -1.26 ± 0.15 (30 °C) and -0.55 ± 0.21 (37 °C).

Regarding GUGAAGCAAUAUUACGAGGU, the “self-splicing fitness (ln)” value runs as follows: (30 °C) -1.83 ± 0.29; (37 °C) -1.36 ± 0.26.

CCGCAGCAAUAUUACGGAUA: the “self-splicing fitness (ln)” value reads like this: (30 °C) -4.16 ± 0.22; (37 °C) -2.91 ± 0.23.

As for UUAUAGCAAUAUUACGACUA, the “self-splicing fitness (ln)” value runs as follows: (30 °C) -0.12 ± 0.23; (37 °C) -0.299 ± 0.2.
